The results in this text go back to patent US20240425848A1.

This assay has as its target histone H3 trimethylated at lysine 9 (H3K9me3) in chromatin of NIH-3T3 cells (UniProt P68433).

For the substance TnH #3: 112aaCD (HP1α)-3×(TGS)-Tn5, the score: coefficient of the linear model for the difference between TnH and Tn5 enrichment (scGET-seq, NIH-3T3), region chrUn JH584304:0-114452, cell group 0 (G1/S) amounted to 0.198.
For the substance “TnH #3: 112aaCD (HP1α)-3×(TGS)-Tn5 (enzyme)”, the score: coefficient of the linear model for the difference between TnH and Tn5 enrichment (scGET-seq, NIH-3T3), region chrUn JH584304:0-114452, cell group 1 (G2/M) is -0.133; the score: coefficient of the linear model for the difference between TnH and Tn5 enrichment (scGET-seq, NIH-3T3), region chrUn JH584304:0-114452, cell group 2 (G2/M) was -0.105; the score: coefficient of the linear model for the difference between TnH and Tn5 enrichment (scGET-seq, NIH-3T3), region chrUn JH584304:0-114452, cell group 3 (G1/S) is 0.329; the score: coefficient of the linear model for the difference between TnH and Tn5 enrichment (scGET-seq, NIH-3T3), region chrUn JH584304:0-114452, cell group 4 (G1/S) turned out to be 0.067. In addition, the score: coefficient of the linear model for the difference between TnH and Tn5 enrichment (scGET-seq, NIH-3T3), region chrUn JH584304:0-114452, cell group 5 (G2/M) was -0.146; the score: coefficient of the linear model for the difference between TnH and Tn5 enrichment (scGET-seq, NIH-3T3), region chrUn JH584304:0-114452, cell group 6 (G1/S) came to 0.138; the score: coefficient of the linear model for the difference between TnH and Tn5 enrichment (scGET-seq, NIH-3T3), region chrUn JH584304:0-114452, cell group 7 (G2/M) is -0.189; the score: coefficient of the linear model for the difference between TnH and Tn5 enrichment (scGET-seq, NIH-3T3), region chrUn JH584304:0-114452, cell group 8 (G2/M) is -0.287. Further, the score: coefficient of the linear model for the difference between TnH and Tn5 enrichment (scGET-seq, NIH-3T3), region chrUn JH584304:0-114452, cell group 9 (G1/S) was -0.523; the score: coefficient of the linear model for the difference between TnH and Tn5 enrichment (scGET-seq, NIH-3T3), region chrUn JH584304:0-114452, cell group 10 (G2/M) was -0.073; the score: coefficient of the linear model for the difference between TnH and Tn5 enrichment (scGET-seq, NIH-3T3), region chrUn JH584304:0-114452, cell group 11 (G1/S) is -0.457; the score: coefficient of the linear model for the difference between TnH and Tn5 enrichment (scGET-seq, NIH-3T3), region chrUn JH584304:0-114452, cell group 12 (G1/S) is 0.163. Moreover, the score: coefficient of the linear model for the difference between TnH and Tn5 enrichment (scGET-seq, NIH-3T3), region chrUn JH584304:0-114452, cell group 13 (G2/M) is -0.528; the score: coefficient of the linear model for the difference between TnH and Tn5 enrichment (scGET-seq, NIH-3T3), region chrUn JH584304:0-114452, cell group 14 (G2/M) is -0.28; the score: coefficient of the linear model for the difference between TnH and Tn5 enrichment (scGET-seq, NIH-3T3), region chrUn JH584304:0-114452, cell group 15 (G1/S) is -0.47; the score: coefficient of the linear model for the difference between TnH and Tn5 enrichment (scGET-seq, NIH-3T3), region chrUn JH584304:0-114452, cell group 16 (G1/S) is 0.576. Moreover, the score: coefficient of the linear model for the difference between TnH and Tn5 enrichment (scGET-seq, NIH-3T3), region chrUn JH584304:0-114452, cell group 17 (G2/M) was determined as 0.468; the score: coefficient of the linear model for the difference between TnH and Tn5 enrichment (scGET-seq, NIH-3T3), region chrUn JH584304:0-114452, cell group 18 (G1/S) is -0.089; the score: coefficient of the linear model for the difference between TnH and Tn5 enrichment (scGET-seq, NIH-3T3), region chrUn JH584304:0-114452, cell group 19 (G1/S) is -0.129; the score: coefficient of the linear model for the difference between TnH and Tn5 enrichment (scGET-seq, NIH-3T3), region chrUn JH584304:0-114452, cell group 20 (G2/M) was -0.011. The substance also gave a score: coefficient of the linear model for the difference between TnH and Tn5 enrichment (scGET-seq, NIH-3T3), region chrUn JH584304:0-114452, cell group 21 (G2/M) of 0.138.
